Measurements reported in patent publication US20240050559A1 (ICOSAVAX, published 2024).

Target: T1, compA-01
T1 chain: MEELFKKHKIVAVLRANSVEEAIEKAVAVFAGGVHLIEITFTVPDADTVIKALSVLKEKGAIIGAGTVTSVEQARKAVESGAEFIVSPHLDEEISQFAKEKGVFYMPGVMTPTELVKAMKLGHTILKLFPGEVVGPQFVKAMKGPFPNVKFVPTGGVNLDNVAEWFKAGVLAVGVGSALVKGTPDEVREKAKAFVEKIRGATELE
Assay: particle assembly of purified compB-01 with compA-01

B1: compB-01 (I53-50B sequence) (designed binder)
chain: MNQHSHKDHETVRIAVVRARWHAEIVDACVSAFEAAMRDIGGDRFAVDVFDVPGAYEIPLHARTLAETGRYGAVLGTAFVVNGGIYRHEFVASAVINGMMNVQLNTGVPVLSAVLTPHNYDKSKAHTLLFLALFAVKGMEAARACVEILAAREKIAA
notes: Designed pentameric component B of the two-component I53-50 icosahedral particle; also called I53-50B compB-01; bompB-01
- binding result: binds
